Assay results: US20150098941A1 (Chugai, published 2015)

B1: Fc-modified humanized anti-GPC3 antibody V209 (S239D/A330L/I332E) (antibody, human IgG1)
heavy: QVQLVQSGAEVKKPGASVKVSCKASGYTFTDYEMHWVRQAPGQGLEWMGALDPKTGDTAYSQKFKGRVTLTADKSTSTAYMELSSLTSEDTAVYYCTRFYSYTYWGQGTLVTVSSASTKGPSVFPLAPSSKSTSGGTAALGCLVKDYFPEPVTVSWNSGALTSGVHTFPAVLQSSGLYSLSSVVTVPSSSLGTQTYICNVNHKPSNTKVDKKVEPKSCDKTHTCPPCPAPELLGGPDVFLFPPKPKDTLMISRTPEVTCVVVDVSHEDPEVKFNWYVDGVEVHNAKTKPREEQYNSTYRVVSVLTVLHQDWLNGKEYKCKVSNKALPLPEEKTISKAKGQPREPQVYTLPPSRDELTKNQVSLTCLVKGFYPSDIAVEWESNGQPENNYKTTPPVLDSDGSFFLYSKLTVDKSRWQQGNVFSCSVMHEALHNHYTQKSLSLSPGK
VL: DVVMTQSPLSLPVTPGEPASISCRSSQSLVHSNGNTYLHWYLQKPGQSPQLLIYKVSNRFSGVPDRFSGSGSGTDFTLKISRVEAEDVGVYYCSQNTHVPPTFGQGTKLEIK
notes: G1m(1) allotype
B2: Fc-modified humanized anti-GPC3 antibody V922 (S239D/K326T/I332E) (antibody, human IgG1)
heavy: QVQLVQSGAEVKKPGASVKVSCKASGYTFTDYEMHWVRQAPGQGLEWMGALDPKTGDTAYSQKFKGRVTLTADKSTSTAYMELSSLTSEDTAVYYCTRFYSYTYWGQGTLVTVSSASTKGPSVFPLAPSSKSTSGGTAALGCLVKDYFPEPVTVSWNSGALTSGVHTFPAVLQSSGLYSLSSVVTVPSSSLGTQTYICNVNHKPSNTKVDKKVEPKSCDKTHTCPPCPAPELLGGPDVFLFPPKPKDTLMISRTPEVTCVVVDVSHEDPEVKFNWYVDGVEVHNAKTKPREEQYNSTYRVVSVLTVLHQDWLNGKEYKCKVSNTALPAPEEKTISKAKGQPREPQVYTLPPSRDELTKNQVSLTCLVKGFYPSDIAVEWESNGQPENNYKTTPPVLDSDGSFFLYSKLTVDKSRWQQGNVFSCSVMHEALHNHYTQKSLSLSPGK
VL: DVVMTQSPLSLPVTPGEPASISCRSSQSLVHSNGNTYLHWYLQKPGQSPQLLIYKVSNRFSGVPDRFSGSGSGTDFTLKISRVEAEDVGVYYCSQNTHVPPTFGQGTKLEIK
B3: Fc-modified humanized anti-GPC3 antibody V209 nG1m(1) allotype (S239D/A330L/I332E/D356E/L358M) (antibody, human IgG1, name in EU numbering)
heavy: QVQLVQSGAEVKKPGASVKVSCKASGYTFTDYEMHWVRQAPGQGLEWMGALDPKTGDTAYSQKFKGRVTLTADKSTSTAYMELSSLTSEDTAVYYCTRFYSYTYWGQGTLVTVSSASTKGPSVFPLAPSSKSTSGGTAALGCLVKDYFPEPVTVSWNSGALTSGVHTFPAVLQSSGLYSLSSVVTVPSSSLGTQTYICNVNHKPSNTKVDKKVEPKSCDKTHTCPPCPAPELLGGPDVFLFPPKPKDTLMISRTPEVTCVVVDVSHEDPEVKFNWYVDGVEVHNAKTKPREEQYNSTYRVVSVLTVLHQDWLNGKEYKCKVSNKALPLPEEKTISKAKGQPREPQVYTLPPSREEMTKNQVSLTCLVKGFYPSDIAVEWESNGQPENNYKTTPPVLDSDGSFFLYSKLTVDKSRWQQGNVFSCSVMHEALHNHYTQKSLSLSPGK
VL: DVVMTQSPLSLPVTPGEPASISCRSSQSLVHSNGNTYLHWYLQKPGQSPQLLIYKVSNRFSGVPDRFSGSGSGTDFTLKISRVEAEDVGVYYCSQNTHVPPTFGQGTKLEIK
B4: Fc-modified humanized anti-GPC3 antibody V22 (I332E) (antibody)
heavy: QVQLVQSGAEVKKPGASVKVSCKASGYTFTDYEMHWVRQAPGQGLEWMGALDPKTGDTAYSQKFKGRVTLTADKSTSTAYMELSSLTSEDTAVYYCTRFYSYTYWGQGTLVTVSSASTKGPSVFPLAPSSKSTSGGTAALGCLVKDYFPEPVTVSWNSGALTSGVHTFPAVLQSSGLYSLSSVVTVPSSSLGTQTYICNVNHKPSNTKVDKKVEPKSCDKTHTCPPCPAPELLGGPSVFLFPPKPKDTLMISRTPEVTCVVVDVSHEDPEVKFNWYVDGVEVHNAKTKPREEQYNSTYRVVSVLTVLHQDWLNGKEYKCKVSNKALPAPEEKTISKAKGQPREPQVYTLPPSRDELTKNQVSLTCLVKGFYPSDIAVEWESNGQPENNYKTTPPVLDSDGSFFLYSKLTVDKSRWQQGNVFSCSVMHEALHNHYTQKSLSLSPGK
VL: DVVMTQSPLSLPVTPGEPASISCRSSQSLVHSNGNTYLHWYLQKPGQSPQLLIYKVSNRFSGVPDRFSGSGSGTDFTLKISRVEAEDVGVYYCSQNTHVPPTFGQGTKLEIK
notes: also called pC-aGPChl (22)
B5: Fc-modified humanized anti-GPC3 antibody V212 (S239D/S298A/I332E) (antibody, human IgG1)
heavy: QVQLVQSGAEVKKPGASVKVSCKASGYTFTDYEMHWVRQAPGQGLEWMGALDPKTGDTAYSQKFKGRVTLTADKSTSTAYMELSSLTSEDTAVYYCTRFYSYTYWGQGTLVTVSSASTKGPSVFPLAPSSKSTSGGTAALGCLVKDYFPEPVTVSWNSGALTSGVHTFPAVLQSSGLYSLSSVVTVPSSSLGTQTYICNVNHKPSNTKVDKKVEPKSCDKTHTCPPCPAPELLGGPDVFLFPPKPKDTLMISRTPEVTCVVVDVSHEDPEVKFNWYVDGVEVHNAKTKPREEQYNATYRVVSVLTVLHQDWLNGKEYKCKVSNKALPAPEEKTISKAKGQPREPQVYTLPPSRDELTKNQVSLTCLVKGFYPSDIAVEWESNGQPENNYKTTPPVLDSDGSFFLYSKLTVDKSRWQQGNVFSCSVMHEALHNHYTQKSLSLSPGK
VL: DVVMTQSPLSLPVTPGEPASISCRSSQSLVHSNGNTYLHWYLQKPGQSPQLLIYKVSNRFSGVPDRFSGSGSGTDFTLKISRVEAEDVGVYYCSQNTHVPPTFGQGTKLEIK
notes: also called pC-aGPChl (212)

The binders below were run against T1, fused protein GST-GPC3 (GST and human glypican-3 peptide of SEQ ID NO: 16) (human, UniProt P51654 524-563) (assay: SPR (BIACORE 3000), CHO culture supernatant over immobilized GST-GPC3).
T1 construct: It was immobilized on a BIACORE chip; also called GPC3 peptide; not shown: GST (glutathione S-transferase)
T1 sequence (P51654 524-563 limits assumed): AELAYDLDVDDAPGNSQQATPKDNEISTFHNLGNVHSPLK
Method: This was introduced into 2×10⁶/0.6 ml PBS(−) of CHO cells (strain DXB11S) according to an electroporation method under a condition of 1.5 kV and 25 uF. The cells were incubated in a 8% CO₂ incubator at 37° C. The cells were screened in CHO-S-SFMII medium (Invitrogen) containing 400 μg/ml of geneticin. Selected cells were inoculated into a CHO-S-SFMII medium containing 400 μg/ml geneticin in a 96-well plate at 0.4 cells/100 μl/well, and the cells were cloned according to a limiting dilution method. The culture supernatant was analyzed with BIACORE 3000. The antigen was quantified using a chip with fused protein GST-GPC3 (antigen GST and human glypican-3 shown by SEQ ID NO:16) immobilized thereon, and high-expression cells were selected.

Binding result, binds:
B1, B2, B3, B4, B5
